Consider eleven molecules from publication PMC12269497, “Dimerization of the BAR domain–containing protein FAM92A modulates lipid binding and interaction with CBY1” (The Journal of Biological Chemistry, 2025).

One may read the stoichiometry N as the number of molecules, sites or subunits per partner or assembly. Usually Kd stands for the equilibrium constant for the complex coming apart. Lower therefore signals tighter binding.

Series [1] has as its target mouse FAM92A BAR domain (amino acids 70-283), untagged (mouse). Put plainly: SEC-MALS; typically 200 μl at 70 μM injected; Superose 12 10/300 GL; 50 mM Tris pH 7.5, 1 mM DTT, 1 mM EDTA, 100 mM NaCl. Background: SEC sorts molecules by how far they enter the pores of the column.
Series [2] addresses mouse FAM92A BAR domain Mu2 (R201, R203, R205 to glutamic acid) (mouse). The series is described as above.
In series [3] the target is Trx-Strep-tagged mouse FAM92A BAR domain (amino acids 70-283) (mouse). As to the kind of experiment: BLI; Trx-Strep-tagged FAM92A BAR (1 μM) loaded on Strep-Tactin XT probes, His-tagged CBY1 variants in solution; PBS with 0.02% Tween-20 and 0.2% BSA; 1:1 binding model. Background: In BLI a coated tip is dipped into the sample, and binding shifts an interference pattern.
Series [4] concerns the target mouse FAM92A BAR domain (amino acids 70-283), untagged (mouse). Put plainly: ITC; CBY1 variants (200–300 μM) in the syringe, FAM92A BAR or its dimerization mutants (100–120 μM) in the cell; 25 °C; 50 mM Tris pH 7.5, 1 mM DTT, 1 mM EDTA, 100 mM NaCl; one-site binding model.
Series [5] deals with mouse FAM92A BAR domain Mu1 (K176, K178, R179 to glutamic acid) (mouse). As to the kind of experiment: SEC-MALS; typically 200 μl at 70 μM injected; Superose 12 10/300 GL; 50 mM Tris pH 7.5, 1 mM DTT, 1 mM EDTA, 100 mM NaCl.
Series [6] addresses mouse FAM92A BAR domain Mu4 (K169, K183, K194 to glutamic acid) (mouse). The series is described as above.
Series [7] concerns the target mouse FAM92A BAR domain Mu3 (R108, K109, R112, R114, K116 to glutamic acid) (mouse). Described as above.
The target of series [8] is Trx-tagged full-length mouse FAM92A (mouse). Described as above.
Series [9] addresses mouse FAM92A BAR domain Mu5 (R72, K83, K94 to glutamic acid) (mouse). Described as above.
Series [10] concerns the target T1, Trx-Strep-tagged mouse FAM92A BAR domain (amino acids 70-283) (mouse).
T1 chain: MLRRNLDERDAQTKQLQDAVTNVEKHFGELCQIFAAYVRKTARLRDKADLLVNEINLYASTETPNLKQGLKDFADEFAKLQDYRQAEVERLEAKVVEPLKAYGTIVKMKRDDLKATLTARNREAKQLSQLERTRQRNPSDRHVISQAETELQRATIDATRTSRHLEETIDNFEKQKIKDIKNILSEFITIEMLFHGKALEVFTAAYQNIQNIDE
Put plainly: BLI.

Series [11] deals with the molecule itself. Put plainly: SEC-MALS; typically 200 μl at 70 μM injected; Superose 12 10/300 GL; 50 mM Tris pH 7.5, 1 mM DTT, 1 mM EDTA, 100 mM NaCl.

In turn, “mouse FAM92A BAR domain (amino acids 70-283), untagged (domain or fragment)” registered a stoichiometry N in [1] of 2.
For the molecule “mouse FAM92A BAR domain Mu2 (R201, R203, R205 to glutamic acid) (domain or fragment)”, in series [2], the stoichiometry N worked out at 2.
“MBP-His-tagged mouse CBY1 4E (L77E, L84E, L91E, L98E) (from UniProt Q9D1C2 1-127) (natural protein)”: the equilibrium dissociation constant (Kd) in series [3] is 5.6 µM; in [4], 2.8 µM.
Turning to “mouse FAM92A BAR domain Mu1 (K176, K178, R179 to glutamic acid) (domain or fragment)”, in series [5], the stoichiometry N was found to be 2.
In turn, “mouse FAM92A BAR domain Mu4 (K169, K183, K194 to glutamic acid) (domain or fragment)” gave a stoichiometry N in series [6] of 2.
The molecule “mouse FAM92A BAR domain Mu3 (R108, K109, R112, R114, K116 to glutamic acid) (domain or fragment)” came in with a stoichiometry N in [7] of 2.
“Trx-tagged full-length mouse FAM92A (natural protein)”: the stoichiometry N in [8] is 2.
As for “mouse FAM92A BAR domain Mu5 (R72, K83, K94 to glutamic acid) (domain or fragment)”, the stoichiometry N in series [9] stood at 2.

B1: Trx-His-tagged mouse CBY1 N-terminal region (amino acids 1-70) (domain or fragment)
chain: MPLFGSIFSPKKTPPRKSASLSNLHSLDRSTRELELGLDYGTPTMNLAGQSLKFENGQWVADSVISGGVD
Turning to B1, the Kd stood at 10.8 µM in series [10], 10 µM in [3] and 3.6 µM in [4].

B2: Trx-tagged mouse CBY1 coiled-coil domain (amino acids 61-127) (domain or fragment, UniProt Q9D1C2 61-127, looked up)
chain: ADSVISGGVDRRETQRLRKRNQQLEEENNLLRLKVDILLDMLSETTAESHLKDKELDELKVTNRRRK
notes: mouse CBY1, GenBank NP_082910.1, amino acids 61-127 (C-terminal coiled-coil domain); also called CBY1 CC; source: E. coli BL21 (DE3), purified; not shown: Trx, N-terminal, kept
B2: the “stoichiometry N” value in [11] was 2.

B3: MBP-His-tagged full-length mouse Chibby1 (CBY1) (natural protein, UniProt Q9D1C2 1-127, looked up)
chain: MPLFGSIFSPKKTPPRKSASLSNLHSLDRSTRELELGLDYGTPTMNLAGQSLKFENGQWVADSVISGGVDRRETQRLRKRNQQLEEENNLLRLKVDILLDMLSETTAESHLKDKELDELKVTNRRRK
notes: mouse CBY1, GenBank NP_082910.1, amino acids 1-127; also called CBY1 FL; CBY1-FL; source: E. coli BL21 (DE3), purified (Ni-NTA, SEC); not shown: MBP, N-terminal, kept; His6, N-terminal, kept
As for B3, the “stoichiometry N” value in [11] turned out to be 2. In addition, the Kd amounted to 0.25 µM in series [3] and 0.15 µM in series [4].
